Test results published in patent US20260185118A1 (priority 2023, published 2026).
Positions count from the first letter of the chain named.

B1: CsPUB21DN (protein)
chain: MILSWKRLRGGRGRRAGKKQPGVESGGEMELTTPNHFRAPISLDLMKDPVTLSTGITYDRENIEKWIHEDGNITCPVTNRVLTSFEPIPNHTIRRMIQDWCVENRSYGIERIPTPRIPVSSVEVFEINCNITTACKSEDQAGCRDLVAKIKKWTKESDRNKRCIVDNGAVSVLAEAFETFSKTCLDENVSVLEEILSTLTLLFPLAGEGLTYLGSASSMRCMVWFLKSGDLSRRRNAVLVLREIVSSDHRKVNVLLDIEGAIEPLFKLIKEPICPTATKASLVVVYRTITSASATEKPIQKFVDMGLVSLLLEMLVDAQRSLCEKALSVLDGLCSSDYGRGDAYNNSLIFPVIVKKILRVSDLATEFAVSILWKLCKNEEREEKTAFAEALQVGAFQKLLLLLQVGCADKTKEHVSELLKLLNPHRARLECIDSMDFKDLKRPF
modifications: left off: large carriers
B2: CsPUB21: citrus plant U-box E3 ubiquitin ligase protein, amino acid sequence SEQ ID No. 1; overexpressed in citrus (protein)
chain: B1 chain with A39C

Legend:
CsPUB21 = type: biochemical, Citrus sinensis; conditions: in the presence of E1 (AtUBA1) and E2 (AtUBC8), anti-c-myc immunoblot
[1] = test system: Diaphorina citri Kuwayama; type: in vivo; conditions: overexpressing leaves versus blank vector control leaves, 100 psyllids starved 2 h, counted after 40 min
CsMYC2 [2] = type: binding, Citrus sinensis; conditions: yeast AH109, SD-Leu-Trp-His with 5 mM 3-AT
CsMYC2 [3] = type: cell-based, Citrus sinensis; conditions: tobacco leaves, 2-3 days, cytoplasm and nucleus
CsMYC2 [4] = type: biochemical, Citrus sinensis; conditions: with AtUBA1, AtUBC8 and ubiquitin, anti-MBP immunoblot
CsMYC2 protein = type: cell-based, Citrus sinensis; conditions: tobacco leaves, 35S:CsMYC2-myc co-injected, versus 35S:YFP

Row | Molecule | E3 ubiquitin ligase activity (auto-ubiquitination) (CsPUB21) | Diaphorina citri Kuwayama attracted by leaves of transgenic citrus [1] | interaction with CsMYC2 (yeast two-hybrid) (CsMYC2 [2]) | interaction with CsMYC2 (BiFC) (CsMYC2 [3]) | polyubiquitination of the CsMYC2 protein in vitro (CsMYC2 [4]) | accumulated level of the CsMYC2 protein on coexpression (CsMYC2 protein)
1 | B1 | does not show ubiquitination activity | about 40% | does not affect the interaction with CsMYC2 | does not affect the interaction with CsMYC2 | cannot ubiquitinate CsMYC2 | this reduction was inhibited
2 | B2 | – | 63.5% | – | – | – | –
